Results taken from patent US20130022590, “Compositions Comprising Zinc Finger Domains and Uses Therefor” (published 2013).
Substitutions are numbered along the chain they refer to.

Assays:
ZRANB2-F12 [1] = target: T1, ZRANB2-F12 (Homo sapiens, UniProt O95218 O95218:1-95); test: EMSA; 10 mM Mops pH 7.2, 50 mM KCl, 5 mM MgCl2, heparin, 4 C; conditions: tags: GST removed for FA, gel shift and SPR; label: 5'-fluorescein (FA) or 32P (gel shift)
Method: (§1) Gel Shift assays e.g., FIGS. 1B, 32A, were carried out using standard protocols. In brief, oligonucleotides were 5′ end-labelled with T4 polynucleotide kinase and annealed. Binding reactions were set up in a volume of 30 μL and contained a constant concentration of ³²P-labeled probe (0.1 pmol) and increasing concentrations of F12, in a buffer consisting of 10 mM Mops (pH 7.2), 50 mM KCl, 5 mM MgCl₂, 1 mM DTT, 0.03 mg/mL heparin, and 5% glycerol. Binding reactions were set up on ice and incubated at 4° C. for 30 min, after which time 15 μL of each sample was loaded onto a prerun 8% native polyacrylamide gel made up in 0.5× Tris-borate buffer, and electrophoresed (250V, 1 h, 4° C.). The oligonucleotide sequence used for gel shift experiments was […] (SEQ ID NO: 28); the site was mutated by changing the central GGU to CUG.
(§2) To determine whether the AGGUAA motif was sufficient for binding, the binding of the double finger construct F12 to a 17-nt RNA oligonucleotide containing a single AGGUAA motif was tested as described in Section 1.4 above with dsDNA, ssDNA, and dsRNA also tested as controls. […] Mutation of the central GGU, which is the most highly-conserved element in the SELEX consensus to CUG, abrogated the interaction, showing that the interaction is sequence specific (FIG. 1B).

ZRANB2-F1 = target: T2, ZRANB2-F1 (Homo sapiens, UniProt O95218 O95218:1-45); test: FP; GST-F1; 10 mM Tris pH 8.0, 50 mM KCl, 5 mM MgCl2, heparin, 25 C; conditions: tags: GST fusion; label: 5'-fluorescein (FA) or 32P (gel shift)
T2 chain: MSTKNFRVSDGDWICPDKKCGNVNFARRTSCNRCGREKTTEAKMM
Method: (§3) Fluorescence Anisotropy titrations e.g., as shown in FIGS. 1D-F, 8 and 35, were carried out using standard protocols. In brief, 5′-Fluorescein-labeled RNA oligonucleotides were quantified by A₂₆₀, correcting for fluorescein absorbance by using A₄₉₃. For single-site experiments, the sequence […] (SEQ ID NO: 28), or single base mutants thereof, was used. For double-site experiments, two AGGUAA sites were separated by different length sequences as indicated, and the total oligonucleotide lengths were kept constant by the symmetrical addition of adenines to each end. […] Protein was titrated into this starting solution and anisotropy values measured on a Cary Eclipse fluorescence spectrophotometer fitted with manual polarizer and long-pass filters set to 475 and 515 nm for excitation and emission, respectively. […] Association constants were determined by nonlinear least squares regression analysis using a 1:1 binding model.
Constructs of the two individual domains, F1 (FIG. 2, residues 1-45) and F2 (FIG. 2, residues 65-95), were cloned expressed and purified as GST fusions described in section 1.2 above, and tested their ability to bind ssRNA by fluorescence anisotropy as described in section 1.5 above, using a ssRNA oligonucleotide bearing a 5′ fluorescein tag and containing a single AGGUAA site.

ZRANB2-F2 K72A = target: T3, ZRANB2-F2 K72A (Homo sapiens, UniProt O95218 O95218:65-95, K72A); test: FP; much smaller change in affinity; conditions: label: 5'-fluorescein (FA) or 32P (gel shift)
T3 chain: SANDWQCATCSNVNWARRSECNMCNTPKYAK
Method: (§4) Fluorescence Anisotropy titrations e.g., as shown in FIGS. 1D-F, 8 and 35, were carried out using standard protocols. In brief, 5′-Fluorescein-labeled RNA oligonucleotides were quantified by A₂₆₀, correcting for fluorescein absorbance by using A₄₉₃. For single-site experiments, the sequence […] (SEQ ID NO: 28), or single base mutants thereof, was used. For double-site experiments, two AGGUAA sites were separated by different length sequences as indicated, and the total oligonucleotide lengths were kept constant by the symmetrical addition of adenines to each end. The anisotropy titrations were performed with a starting RNA concentration of 50 nM in a buffer comprising either 10 mM Tris (pH 8.0), 50 mM KCl, 5 mM MgCl₂, 0.05 mg/mL heparin, and 1 mM DTT (for GST fusion constructs) or 10 mM Mops (pH 7.3), 50 mM NaCl, 0.05 mg/mL heparin, and 1 mM DTT (for ZRANB2-F12). RNasin (Promega) was also added to the protein solution to a concentration of 2 units/μL. Protein was titrated into this starting solution and anisotropy values measured on a Cary Eclipse fluorescence spectrophotometer fitted with manual polarizer and long-pass filters set to 475 and 515 nm for excitation and emission, respectively. […] Association constants were determined by nonlinear least squares regression analysis using a 1:1 binding model. […]

ZRANB2-F2 T73A = target: T4, ZRANB2-F2 T73A (Homo sapiens, UniProt O95218 O95218:65-95, T73A); test: FP; much smaller change in affinity; conditions: label: 5'-fluorescein (FA) or 32P (gel shift)
T4 chain: T3 chain with A8K, T9A
Method: as §4

ZRANB2-F2 = target: T5, ZRANB2-F2 (Homo sapiens, UniProt O95218 O95218:65-95); test: FP; GST-F2; 10 mM Tris pH 8.0, 50 mM KCl, 5 mM MgCl2, heparin, 25 C; conditions: tags: GST fusion (FA); label: 5'-fluorescein (FA) or 32P (gel shift)
T5 chain: T3 chain with A8K
Method: Fluorescence Anisotropy titrations e.g., as shown in FIGS. 1D-F, 8 and 35, were carried out using standard protocols. In brief, 5′-Fluorescein-labeled RNA oligonucleotides were quantified by A₂₆₀, correcting for fluorescein absorbance by using A₄₉₃. For single-site experiments, the sequence […] (SEQ ID NO: 28), or single base mutants thereof, was used. For double-site experiments, two AGGUAA sites were separated by different length sequences as indicated, and the total oligonucleotide lengths were kept constant by the symmetrical addition of adenines to each end. The anisotropy titrations were performed with a starting RNA concentration of 50 nM in a buffer comprising either 10 mM Tris (pH 8.0), 50 mM KCl, 5 mM MgCl₂, 0.05 mg/mL heparin, and 1 mM DTT (for GST fusion constructs) or 10 mM Mops (pH 7.3), 50 mM NaCl, 0.05 mg/mL heparin, and 1 mM DTT (for ZRANB2-F12). RNasin (Promega) was also added to the protein solution to a concentration of 2 units/μL. Protein was titrated into this starting solution and anisotropy values measured on a Cary Eclipse fluorescence spectrophotometer fitted with manual polarizer and long-pass filters set to 475 and 515 nm for excitation and emission, respectively. […] Association constants were determined by nonlinear least squares regression analysis using a 1:1 binding model.

ZRANB2-F2 R82Q [2] = target: T6, ZRANB2-F2 R82Q (Homo sapiens, UniProt O95218 O95218:65-95, R82Q); test: FP; conditions: label: 5'-fluorescein (FA) or 32P (gel shift)
T6 chain: T3 chain with A8K, R18Q
Method: as §3
(§5) To determine whether changing arginine-82 (R82) would affect the binding preference of ZRANB2-F2 from GGU to GAU, the point mutation R82Q in ZNF 2 of ZRANB2 was made and the ability of both the wild type (W) protein and the R82Q mutant to bind to AGGUAA and AGAUAA was assessed by fluorescence anisotropy binding assays as described previously in Example 1.

ZRANB2-F12 [3] = target: T1, ZRANB2-F12; test: FP; higher affinity than shorter spacings; value in figure only; conditions: tags: GST removed for FA, gel shift and SPR; label: 5'-fluorescein
Method: as §3
The importance of the spacing between AGGUAA motifs was assessed by measuring binding of F12 to double sites that were separated by −1 to 8 nt (where −1 denotes the sequence […] SEQ ID NO: 33; FIG. 1E, lanes 5-10).

ZRANB2-F12 [4] = target: T1, ZRANB2-F12; test: EMSA; interaction abrogated; conditions: tags: GST removed for FA, gel shift and SPR; label: 32P
Method: as §1, §2

ZRANB2-F12 [5] = target: T1, ZRANB2-F12; test: EMSA; dsDNA control; conditions: tags: GST removed for FA, gel shift and SPR; label: 32P
Method: as §1, §2

ZRANB2-F12 [6] = target: T1, ZRANB2-F12; test: EMSA; dsRNA control; conditions: tags: GST removed for FA, gel shift and SPR; label: 32P
Method: as §1, §2

ZRANB2-F2 (untagged) = target: T7, ZRANB2-F2 (untagged) (Homo sapiens, UniProt O95218 O95218:65-95); test: 15N-HSQC titration, 1:1 complex
T7 chain: T3 chain with A8K
Method: For RNA titrations, deprotected RNA oligonucleotides i.e., having the sequence AGGUAA, […] (SEQ ID NO: 25), or […] (SEQ ID NO: 26) and the appropriate protein were dialyzed into 10 mM Mops (pH 7.2) and 0.5 mM DTT. Protein and RNA concentrations were calculated from A₂₈₀ and A₂₆₀, respectively. Final concentrations of complexes after titrations were typically approximately 0.1-0.5 mM. Assignments of the F2:RNA complex (1:1 or 1:1.2 molar ratio) were made at 25° C. as described above.
The inventors then carried out chemical-shift perturbation experiments, titrating short (6 or 10 nt) RNA oligonucleotides containing a single AGGUAA motif into ¹⁵N-labeled F2.

ZRANB2-F12 [7] = target: T1, ZRANB2-F12; test: 15N-HSQC titration; conditions: tags: GST removed for FA, gel shift and SPR; label: 5'-fluorescein
Method: In brief, F2 and F12 were dialysed into 25 mM potassium phosphate (pH 7.0), 25 mM NaCl, and 0.5 mM DTT and concentrated to 0.4-1 mM. All spectra were recorded on a Bruker Avance 600 spectrometer equipped with a cryoprobe. 1H, 15N, and 13C assignments were obtained from HNCACB, CB-CA(CO)NH, HCCH-TOCSY, NOESY, and TOCSY spectra acquired at 2° C., 5° C., or 25° C. Dihedral angle restraints were obtained by analysis of an HNHA spectrum as previously described in Vuister G. W. and Bax A. 1993 J Am Chem Soc 115: 7772-7777. NMR data were processed by using XWINNMR/Topspin (Bruker) and analyzed with SPARKY (T. D. Goddard and D. G. Kneller, University of California, San Francisco). The structure of F2 was calculated from NOE and Ø angle constraints (e.g., FIGS. 5 and 9C) by using a protocol as described in Plambeck C. A., et al., 2003 J Biol Chem 278: 22805-22811.
¹⁵N-HSQC titrations were also carried out by using the double finger construct (F12; residues 1-95) and the double site oligonucleotide. AGGUAAAGGUAA (SEQ ID NO: 26). […] This titration (FIG. 9D) gave rise to the same pattern of chemical-shift changes as the two single-finger experiments. Only 3-4 new signals appeared, most likely from linker residues.

ZRANB2-F12 [8] = target: T1, ZRANB2-F12; test: SPR; immobilised RNA; 750 nM F12; 10 mM phosphate pH 7.2, 50 mM NaCl, 25 C; conditions: tags: GST removed for FA, gel shift and SPR; label: 5'-biotin
Method: (§6) Competition binding experiments were carried out by flowing a solution of F12 over a streptavidin chip coated with a biotinylated ssRNA oligonucleotide (containing the sequence AGGUAA) in the presence of an unlabeled competitor oligonucleotide.
(§7) Binding experiments were performed in triplicate at 25° C. on a BIACORE 3000 (Biacore). A 5′ biotin-labeled RNA oligonucleotide containing the 5′ splice site from exon 3 of the Tra2β minigene ([…]; SEQ ID NO: 29) was purified by size exclusion chromatography (Superdex 75), and unlabeled competitor oligonucleotides i.e., […] from exon 1 (SEQ ID NO: 30), […] from exon 2 (SEQ ID NO: 31), and […] from exon 3 (SEQ ID NO: 32) were used without further purification. Protein and RNA samples were dialysed into 10 mM sodium phosphate (pH 7.2), 50 mM NaCl, 1 mM DTT, and 0.005% NP20 and filtered. The biotinylated RNA was heated to 65° C. for 5 min, cooled on ice, and then immobilized onto a streptavidin-coated sensor chip to a total of approximately 160 relative units. Solutions of 750 nM F12 in the presence of 1 molar equivalent of each competitor RNA were injected in random order over the sensor chip (at a flow rate of 20 μL/min for 120 sec) and allowed to undergo a 120-sec dissociation time; a further 300-sec interval was allowed between injections. Data were analyzed by using BIA Evaluation software (Biacore).

ZRANB2-F12 [9] = target: T1, ZRANB2-F12; test: competition; strongest competitor in SPR competition; conditions: tags: GST removed for FA, gel shift and SPR
Method: as §6
as §7, with “software (Biacore). […]” for “software (Biacore).”

ZRANB2-F2 R82Q [10] = target: T6, ZRANB2-F2 R82Q; test: FP; no preference between G and A at position 3; conditions: label: 5'-fluorescein
Method: as §3, §5

B1: 17-nt AGGUAA ssRNA (ssRNA)
RNA: GCAACCAGGUAAAGUCU
With B1 the binding result (ZRANB2-F12 [1]) was “binds”, the Ka (ZRANB2-F1) was 3e+06 M⁻¹ and the binding result (ZRANB2-F2 K72A) was “binds”. The binding result (ZRANB2-F2 T73A) was “binds”, the Ka (ZRANB2-F2) was 1e+06 M⁻¹ and the binding signal (ZRANB2-F2 R82Q [2]) was roughly 2 fold lower than WT F2.

B2: double site spacing 5 (penta-adenine) (ssRNA)
RNA: AGGUAAAAAAAAGGUAA
modifications: [none]
B2: binds (ZRANB2-F12 [3]).

B3: 17-nt CUG mutant ssRNA (ssRNA)
RNA: GCAACCACUGAAAGUCU
modifications: [none]
B3: no binding (ZRANB2-F12 [4]).

B4: 17-nt site as dsDNA (dsDNA)
DNA 1: GCAACCAGGTAAAGTCT
DNA 2: AGACTTTACCTGGTTGC
modifications: [none]
B4: no binding (ZRANB2-F12 [5]).

B5: 17-nt site as dsRNA (dsRNA)
RNA 1: GCAACCAGGUAAAGUCU
RNA 2: AGACUUUACCUGGUUGC
B5: no binding (ZRANB2-F12 [6]).

B6: 10-nt AGGUAA RNA (ssRNA)
RNA: CCAGGUAAAG
B6: binds (ZRANB2-F2 (untagged)).

B7: double site AGGUAAAGGUAA (ssRNA)
RNA: AGGUAAAGGUAA
B7: binds (ZRANB2-F12 [7]).

B8: Tra2-beta exon 3 5' splice site (ssRNA)
RNA: CUCUGAAUCUAGGUAAGAAAG
B8: binds (ZRANB2-F12 [8]).

B9: Tra2-beta exon 3 5' splice site competitor (ssRNA)
RNA: CUCUGAAUCUAGGUAAGAAAG
B9: binds (ZRANB2-F12 [9]).

B10: AGAUAA (3A) (ssRNA)
RNA: AGAUAA
For B10, the binding signal (ZRANB2-F2 R82Q [10]) was ~2 fold higher than WT F2 on same RNA.
